The RNAGym collection of RNA variant scans (doi:10.1073/pnas.2313332121)

B1: TPR t1 (parent)
chain: GACCAAUCUGCCCUCAGAGCUCGAGAACAUCUUCGGAUGCAGAGGAGGCAGGCUUCGGUGGCGCGAUAGCGCCAACGUCCUCAACCUCCAAUGCAUCCCACCACAUGAUGAUGCCUGAAGAGCCUUGGUUUUUUG

Variants of: B1
Test: polymerase ribozyme fitness, log enrichment relative to wild type (log ratio); higher = more active; in vitro selection for triplet polymerase activity
How it was run: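 Fitness compares each genotype's enrichment to that of the wild type on a logarithmic scale, averaging replicates with inverse-variance weights. The logarithm is base 2. Enrichment came from Illumina sequencing of input and output libraries after one triplicate round of in vitro selection, which included frozen incubation at −7 °C, of PCR-built, transcribed mutant libraries of each subunit of a heterodimeric triplet polymerase ribozyme. Only genotypes with ≥10 input reads and ≥1 read per output were kept.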

Variant | polymerase ribozyme fitness (log ratio)
GACCAAUCUGCCCUCAGAGCUCGAGAACAUCUUCGGAUGCAGAGGCGGCAGGCUUGGGUGGCGCGAUAGAGCCAACGUCCUCAACCUCCAAUGCAUCCCACCACAUGAUGAUGCCUGAAGAGCCUUGGUUUUUUG | -5.02
GACCAAUCUGCCCUCAGAGCUCGAGAACAUCUUCGGAUGCAGAGGCGGCAGGCUUGGGUGGCGCGAUAGCGGCAACGUCCUCAACCACCAAUGCAUCCCUCCACAUGAUGAUGCCUGAAGAGCCUUGGUUUUUUG | -1.12
GACCAAUCUGCCCUCAGAGCUCGAGAACAUCUUCGGAUGCAGAGGCGGCAGGCUUUGGUGGCACGAUAGCGCCAACGUCCUCAACCUCCAAUGCAUCCCACCACAUGAUGAUGGCUGAAGAGCCUUCGAUUUUUG | -5.93
GACCAAUCUGCCCUCAGAGCUCGAGAACAUCUUCGGAUGCAGAGGCGGCAGGCUUCGGUGGUGCGAUAGCGCCAACGUCCUCAACUUCCAAUGCAUUCCACCACAUGAUGUUGCCUGAAGAGCUUUGGUUUUUUG | -5.27
GACCAAUCUGCCCUCAGAGCUCGAGAACAUCUUCGGAUGCAGAGGCGGCAGGCUUCGGUGGCGCGAUAGUGCCAACGUCCUCAACCUCCAAUGCAUCCCAUCACAUGAUGAUGCCUGAAGAGCCUUGGUUUUUUG | -1.31
GACCAAUCUGCCCUCAGAGCUCGAGAACAUCUUCGGAUGCAGAGGCGGCAGGCUUCGGUGGCGCGAUAGCGCCAACGUCCUCAACUUCCAAUGCGUCCCACCACAUGAUGAUGGCUGAAGAGCCUUGGUUUUUUG | -3.71
GACCAAUCUGCCCUCAGAGCUCGAGAACAUCUUCGGAUGCAGAGGCGGCAGGCUUCGGUGGCGCGAUAGCGCCAACGUCCUCAACCUCCAAUGCAUCCCACAACAUGAUGAUGCCUGAAUAGACUUGGUUUUUUG | -2.45
GACCAAUCUGCCCUCAGAGCUCGAGAACAUCUUCGGAUGCAGAGGCGGCAGGCUUCGGUGGCGCGAUAGCGCCAACGUCCUCAACCUCCAAUGCAUCCCACCACAUGAUGAUGCGUAAAGAGCCUUGGUUUUUUG | -4.09
GACCAAUCUGCCCUCAGAGCUCGAGAACAUCUUCGGAUGCAGAGGCAGCGGGCUUCGGUGGCGCGAUAGCGCCAACGUCCUCAACCUCCAAUGCAUACCACCACAUGAUGAUGCCUGAAGGGCGUUGGUUUUUUG | -5.64
GACCAAUCUGCCCUCAGAGCUCGAGAACAUCUUCGGAUGCAGAGGCAGCAGGAUUCGGUAGCGCGAUAGCGCGAACGUCCUCAACCUCCAAUGCAUCCCACCACAUGAUGAUGCCUGAAGAGCCUUGGUUUUUUG | -1.61
GACCAAUCUGCCCUCAGAGCUCGAGAACAUCUUCGGAUGCAGAGGCGACAGGCUUCGGUGGCGCGAUAGCGCCAACGUCCUCAACCUCCAAUGCAUCCCACCACAUGAUGAUGCCUGAAGAGCCUUGGUUUUUUG | -1.9
GACCAAUCUGCCCUCAGAGCUCGAGAACAUCUUCGGAUGCAGAGGCGACAGGCUUCGGUGGCGCGAUAGCGCCAACGUCCUCAACCUCCAAUGCAUCCCAUCACAUGAUCAUGCCUGAAGAGCCUUGGUUUUUUG | -6.49
GACCAAUCUGCCCUCAGAGCUCGAGAACAUCUUCGGAUGCAGAGGCGUCAGGCUUCGGUGGCGCGAUAGCGCCAACGUCCUCAACCUCCAAUGCAUCCCACCACAUGAUGAUACCUGAAGAGCCUUGGUUUUUUG | -3
GACCAAUCUGCCCUCAGAGCUCGAGAACAUCUUCGGAUGCAGAGGCGGCAGGCUUCAGUGGGGCGAUAGCGCCAACGUCCUCAACCUCCAAUGCAUCCCACCACAUGAUGAUGCCUGAAGGGCCUUGGUUUUUUG | -1.34
GACCAAUCUGCCCUCAGAGCUCGAGAACAUCUUCGGAUGCAGAGGCGGCAGGCUUCGGUGGCGCGAUAGCGCCAACGUCCUCAACCACCACUGCAACCCACCACAUGAUGAUGCCUGAAGAGCCUUGGUUUUUUG | -2.01
GACCAAUCUGCCCUCAGAGCUCGAGAACAUCUUCGGAUGCAGAGGCGGCAGGCUUCGGUGGCGCGAUAGCGCCAACGUCCUCAACCACCAAUGCAUCCCACCACAUGAUGAUGCCUGAAGAGUCUUGGUUUAUUG | 1.86
GACCAAUCUGCCCUCAGAGCUCGAGAACAUCUUCGGAUGCAGAGGGGGCGGGCUUCGGUGGCGCGAUAGCGCCAACGUCCUCAACCUCCAAUGCAUCCCACCACAUGAUGAUGCCUGAAGAGCCUUGGUUUUUUG | 0.425
GACCAAUCUGCCCUCAGAGCUCGAGAACAUCUUCGGAUGCAGAGGGGGCGGGCUUCGGUGGCGCGAUAGCGCCAACGUCCUCAACCCCCAAUGCAUCCCACCACAUGAUGAUGCCUGAAGAGCCUUGGUUUUUUG | -0.00584
GACCAAUCUGCCCUCAGAGCUCGAGAACAUCUUCGGAUGCAGAGGGGGCAGGCUUCGGUGGCGCGUUAGCGCAAACGUCCUGAACCUCCAAUGCAUCCCACCACAUGAUGAUGCCUGAAGAGCCUUGGUUUUUUG | -2.3
GACCAAUCUGCCCUCAGAGCUCGAGAACAUCUUCGGAUGCAGAGGGGGCAGGCUUCGGUGGCGCGAUAGCGCCCACGUCCUCAACCUCCAAUGCAUCCCACCACAUGAUGAUGCCUGAAGAGCCUUGGUUUUAUG | -0.745
GACCAAUCUGCCCUCAGAGCUCGAGAACAUCUUCGGAUGCAGAGGGGGCAGGCUUCGGUGGCGCGAUAGCGCCAACGUCCUCAACCUCCGAUGCAUCCCACCACAUGAUGAUGCCUGAAGAGCCUUGGUUUUUUG | 0.482

Variant | polymerase ribozyme fitness (log ratio)
GACCAAUCUGCCCUCAGAGCUCGAGAACAUCUUCGGAUGCAGAGGGGGCAGGCUUCGGUGGCGCGAUAGCGCCAACGUCCUCAACCUCCGAUGCAUCCCAUCACAAGAUGAUGCCUGAAGAGCCUUGGUUUUUUG | -0.372
GACCAAUCUGCCCUCAGAGCUCGAGAACAUCUUCGGAUGCAGAGGGGGCAGGCUUCGGUGGCGCGAUAGCGCCAACGUCCUCAACCUCCAAUGCAUCCCACCUCAUGAUGAUGCCUGAAGAGCCAUGGUUUUUUG | -5.23
GACCAAUCUGCCCUCAGAGCUCGAGAACAUCUUCGGAUGCAGAGGGGGCAGGCUUCGGUGGCGCGAUAGCGCCAACGUCCUCAACCUCCAAUGCAUCCCACCACCUGAUGAUGCCUGAAGAGCCUUGGUUUUUUG | -1.62
GACCAAUCUGCCCUCAGAGCUCGAGAACAUCUUCGGAUGCAGAGGGGGCAGGAUUCGGUGGCGCGAUAGCGCCAACGUCCUCAACCUCCAAUGCAUCCCACCACAUGAUGAUGCCUGAAGAGCCUUGGUUUUUUG | -0.35
GACCAAUCUGCCCUCAGAGCUCGAGAACAUCUUCGGAUGCAGAGGGGGCAGGAUUCGGUGGCGCGAUAGCGCCAACGUCCUCAACCUCCAAUGCAUCCCACCACAUGAUGAUGCCUGAAGAGCCUUGGUUUUUUU | -1.55
GACCAAUCUGCCCUCAGAGCUCGAGAACAUCUUCGGAUGCAGAGGGGGCAGGCUUCGGUGGCGUGAUAGCGCCAACGUCCUCAACCUCCAAUGCAUCCCACCACAUGAUGAUGCCUGAAGAGCCUUGGUUUUUUG | -0.426
GACCAAUCUGCCCUCAGAGCUCGAGAACAUCUUCGGAUGCAGAGGGGGCAGGCUUCGGUGGCGCGAUAGCGGCAACGUCCUCAAGCUCCAAUGCAUCCCACCACAUGAUGAUGCCUGAAGAGCCUUGGUUUUUUG | -4.41
GACCAAUCUGCCCUCAGAGCUCGAGAACAUCUUCGGAUGCAGAGGGGGCAGGCUUCGGUGGCGCGAUAGCGCUAACGUCCUCAACCUACAAUGCAUCCCACCACAUGAUGAUGCCUGAAGAGCCUUGGUAUUUUG | -3.03
GACCAAUCUGCCCUCAGAGCUCGAGAACAUCUUCGGAUGCAGAGGGGGCAGGCUUCGGUGGCGCGAUAGCGCUAACGUCCUCAACCACCACUGCAUCCCACCACAUGAUGAUACCUGAAGAGCCUUGGUUUUUUG | -2.54
GACCAAUCUGCCCUCAGAGCUCGAGAACAUCUUCGGAUGCAGAGGGGGCAGGCUUCGGUGGCGCGAUAGCGCCAACGUCCUCAACCUCCAAUGCAUCCCACCACAUGAUGAUGCCUGAAGAGCUUUGGUUUUUUG | 0.675
GACCAAUCUGCCCUCAGAGCUCGAGAACAUCUUCGGAUGCAGAGGGCGCAGGCUUCGGUGGCGCGAUAGCGCCAACGUCCUCAACCUCCAAUGCAACCCACCACAUGAUGAUGCCUGAAGAGCCUUGGUUUUUUG | -3.35
GACCAAUCUGCCCUCAGAGCUCGAGAACAUCUUCGGAUGCAGAGGGUGCAGGCUUCGGUGGCGCGAUAGCGCCAACGUCCUCAACCUCCAAUGCAUCCCACCACAUGAUGAUGCCUGAAUAGCCUUGGUUUAUUG | -1.09
GACCAAUCUGCCCUCAGAGCUCGAGAACAUCUUCGGAUGCAGAGGGGGCAGGCUUCAGUGGCGCGAUAGCGCUAACGUCCUCGACCUCCAAUGCAUCCCACCACAUGAUGACGCCUGAAGAGCCUUGGUUUUUUG | -0.119
GACCAAUCUGCCCUCAGAGCUCGAGAACAUCUUCGGAUGCAGAGGGGGCAGGCUUCGGUUGCGCGAUAGCGCCAACGUCCUCAACCUCCAAUGCAUCCCACCACAUGAUGAUGCCUGAAGAGCCUUGGUUUUUUG | -0.448
GACCAAUCUGCCCUCAGAGCUCGAGAACAUCUUCGGAUGCAGAGGGGGCAGGCUUCGGUGACGCGAUAGCGCCAACGUCCUCAACCUCCAAUGCAUCCCCCCACAUGAUGAUGCCUGAAGAGCCUUGGUUUCUUG | -0.683
GACCAAUCUGCCCUCAGAGCUCGAGAACAUCUUCGGAUGCAGAGGGGGCAGGCUUCGGUGGCUCGAUAGCGCCAACGUCCUCAACCUCCAAUGCAUCCCACCACAUGAUGAUGCCUGAAGUGCCUAGGUUUUUUG | 0.154
GACCAAUCUGCCCUCAGAGCUCGAGAACAUCUUCGGAUGCAGAGGGGGCAGGCUUCGGUGGCGCGAUAUCGCCAACGUCCUCAACCUCCAAUGCAUCCCACCACAUGAUGAUGCCUGAAGAGCCUUGGUUUUUUG | 0.473
GACCAAUCUGCCCUCAGAGCUCGAGAACAUCUUCGGAUGCAGAGGGGGCAGGCUUCGGUGGCGCGAUAGCGCCAACGUCCUCAACCUCCAAUGCAUCCCACCACAUGAUGAUUCCUGAAGAGCCUUGGUUUUUUG | -2.95
GACCAAUCUGCCCUCAGAGCUCGAGAACAUCUUCGGAUGCAGAGGGGGCAGGCUGCGGUGGCGCGAUAGCGCCAACGUCCUCAACCUCCAAUGCAUCCCACCACAUGAUGAUGCCUGAAGAGCCUUGGUUUUUUG | 0.201
GACCAAUCUGCCCUCAGAGCUCGAGAACAUCUUCGGAUGCAGAGGGGGCAGGCUUCGGAGGCGCGAUAGCGCCAACGUCCUCAACCUCCAAUGCAUCCCACCACAUGAUGAUGCCUGAAGAGCCUUGGUUUUUUG | -0.58
GACCAAUCUGCCCUCAGAGCUCGAGAACAUCUUCGGAUGCAGAGGGGGCAGGCUUCGGUGGCGCGAUAGCGCCAACGACCUCAACCUCCAAUGCAUCCCACCACAUGAUGAGGCCUGAAGAGCCUUGGUUUUUUG | 0.172
